The target in the experiment is human zFGF5 (human) (UniProt O76093). In words: cell-based or functional assay.
Sequence of human zFGF5 (human) (O76093 28-207): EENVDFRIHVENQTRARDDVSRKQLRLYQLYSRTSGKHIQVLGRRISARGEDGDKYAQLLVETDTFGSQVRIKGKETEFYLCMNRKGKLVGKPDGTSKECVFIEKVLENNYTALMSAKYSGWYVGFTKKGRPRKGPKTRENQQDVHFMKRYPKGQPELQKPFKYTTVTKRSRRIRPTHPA

On to “FGFR2α-IIIb/Fc soluble receptor (from UniProt P21802 22-378) (Fc fusion)”, for which the Cell Proliferation (percent of control), BAF3 cells expressing FGFR3α-IIIc with zFGF5, soluble receptor at 0 fold-excess (percent of control) worked out at 100; the Cell Proliferation (percent of control), BAF3 cells expressing FGFR3α-IIIc with zFGF5, soluble receptor at 62.5 fold-excess (percent of control) was 101; the Cell Proliferation (percent of control), BAF3 cells expressing FGFR3α-IIIc with zFGF5, soluble receptor at 125 fold-excess (percent of control) came out at 90; the Cell Proliferation (percent of control), BAF3 cells expressing FGFR3α-IIIc with zFGF5, soluble receptor at 250 fold-excess (percent of control) came out at 91. In addition, the Cell Proliferation (percent of control), BAF3 cells expressing FGFR3α-IIIc with zFGF5, soluble receptor at 500 fold-excess (percent of control) amounted to 101 and the Cell Proliferation (percent of control), BAF3 cells expressing FGFR3α-IIIc with zFGF5, soluble receptor at 1000 fold-excess (percent of control) turned out to be 99.

In turn, “FGFR3α-IIIc/Fc soluble receptor (Fc fusion)” came in with a Cell Proliferation (percent of control), BAF3 cells expressing FGFR3α-IIIc with zFGF5, soluble receptor at 0 fold-excess (percent of control) of 100; a Cell Proliferation (percent of control), BAF3 cells expressing FGFR3α-IIIc with zFGF5, soluble receptor at 0.8 fold-excess (percent of control) of 85; a Cell Proliferation (percent of control), BAF3 cells expressing FGFR3α-IIIc with zFGF5, soluble receptor at 1.6 fold-excess (percent of control) of 66; a Cell Proliferation (percent of control), BAF3 cells expressing FGFR3α-IIIc with zFGF5, soluble receptor at 3.2 fold-excess (percent of control) of 37. Also, the Cell Proliferation (percent of control), BAF3 cells expressing FGFR3α-IIIc with zFGF5, soluble receptor at 6.3 (printed 6..3) fold-excess (percent of control) came out at 5; the Cell Proliferation (percent of control), BAF3 cells expressing FGFR3α-IIIc with zFGF5, soluble receptor at 12.5 fold-excess (percent of control) amounted to 1; the Cell Proliferation (percent of control), BAF3 cells expressing FGFR3α-IIIc with zFGF5, soluble receptor at 25 fold-excess (percent of control) was 0.2; the Cell Proliferation (percent of control), BAF3 cells expressing FGFR3α-IIIc with zFGF5, soluble receptor at 50 fold-excess (percent of control) came to 0. For the same substance, the Cell Proliferation (percent of control), BAF3 cells expressing FGFR3α-IIIc with zFGF5, soluble receptor at 100 fold-excess (percent of control) stood at 0.

The values above are taken from US20070099837A1.
